Measured values: paper PMC9095613

Tests used:
Tva-HA-Fc = test: co-IP; conditions: parent: est. 1.0; read off a plot

Substance	ratio to parent (Tva-HA-Fc)	blocking of viral entry: % GFP-positive DF-1 cells (FACS) after incubation with the gp85 protein and infection with RCASBP (A)-EGFP; Tva on DF-1 cells (Figure 6C) (% GFP-positive cells) (Tva-HA-Fc (chicken))
A-gp85-flag wt (soluble gp85 of ALV-A RSA) -266S	0.43	
A-gp85-flag wt (soluble gp85 of ALV-A RSA) -201NFD	0.8	
A-gp85-flag wt (soluble gp85 of ALV-A RSA) -139S	0.73	
A-gp85-flag wt (soluble gp85 of ALV-A RSA) (natural protein)		0.21
E-gp85-flag wt (soluble gp85 of ALV-E ev-1) (natural protein)		31
A-gp85-flag wt (soluble gp85 of ALV-A RSA) -155PWVNPF	0.07	
